In paper PMC12001967, “Different RNA recognition by ProQ and FinO depends on the sequence surrounding intrinsic terminator hairpins”:

Assays:
[1] = molecular target: T1, FinO (F-like plasmid (Escherichia coli), UniProt P29367 1-186); assay: EMSA; 25 mM Tris-HCl pH 7.5, 150 mM NaCl, 5% glycerol, 1 mM MgCl2, 1 nM 32P-RNA, 30 min at room temperature; native 6% PAGE in 0.5x TBE at 4 C; details: protein: recombinant, tags: His6-TEV site (ENLYFQ/S) N-terminal in the expression construct, label: 32P
T1 sequence: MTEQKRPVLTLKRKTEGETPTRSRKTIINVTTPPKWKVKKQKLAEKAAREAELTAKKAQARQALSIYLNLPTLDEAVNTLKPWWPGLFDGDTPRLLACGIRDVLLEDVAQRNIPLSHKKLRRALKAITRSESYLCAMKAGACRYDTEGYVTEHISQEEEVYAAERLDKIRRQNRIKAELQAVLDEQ

[2] = molecular target: T2, ProQ (Escherichia coli, UniProt P45577 1-232); assay: as above; details: protein: recombinant, tags: pET-15b construct, label: 32P
T2 sequence: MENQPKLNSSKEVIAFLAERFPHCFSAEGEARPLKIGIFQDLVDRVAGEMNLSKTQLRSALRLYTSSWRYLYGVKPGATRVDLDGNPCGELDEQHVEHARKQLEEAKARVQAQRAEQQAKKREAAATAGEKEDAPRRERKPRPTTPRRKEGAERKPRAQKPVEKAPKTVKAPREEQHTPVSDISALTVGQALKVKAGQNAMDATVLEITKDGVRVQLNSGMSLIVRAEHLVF

[3] = molecular target: T2, ProQ; assay: EMSA; max bound 85%; 150 mM NaCl, 25 mM Tris-HCl pH 7.5, 5% glycerol, 1 mM MgCl2, 1 nM 32P-RNA, 30 min at room temperature; native 6% PAGE in 0.5x TBE at 4 C; details: protein: recombinant; tags: pET-15b construct; label: 32P; terminator hairpin
[4] = molecular target: T3, ProQNTD (FinO domain of ProQ) (Escherichia coli, UniProt P45577 1-130); assay: EMSA; 25 mM Tris-HCl pH 7.5, 150 mM NaCl, 5% glycerol, 1 mM MgCl2, 1 nM 32P-RNA, 30 min at room temperature; native 6% PAGE in 0.5x TBE at 4 C; details: protein: recombinant, tags: pET-15b construct, label: 32P
T3 sequence: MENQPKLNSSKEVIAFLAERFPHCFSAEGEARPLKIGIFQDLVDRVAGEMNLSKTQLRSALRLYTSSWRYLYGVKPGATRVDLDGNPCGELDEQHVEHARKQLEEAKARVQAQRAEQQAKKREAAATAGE

[5] = molecular target: T1, FinO; assay: EMSA; max bound 57%; 150 mM NaCl, 25 mM Tris-HCl pH 7.5, 5% glycerol, 1 mM MgCl2, 1 nM 32P-RNA, 30 min at room temperature; native 6% PAGE in 0.5x TBE at 4 C; details: protein: recombinant; tags: His6-TEV site (ENLYFQ/S) N-terminal in the expression construct; label: 32P; terminator hairpin
[6] = molecular target: T1, FinO; assay: EMSA; max bound 55%; 150 mM NaCl, 25 mM Tris-HCl pH 7.5, 5% glycerol, 1 mM MgCl2, 1 nM 32P-RNA, 30 min at room temperature; native 6% PAGE in 0.5x TBE at 4 C; details: protein: recombinant; tags: His6-TEV site (ENLYFQ/S) N-terminal in the expression construct; label: 32P; terminator hairpin
[7] = molecular target: T2, ProQ; assay: EMSA; max bound 67%; 150 mM NaCl, 25 mM Tris-HCl pH 7.5, 5% glycerol, 1 mM MgCl2, 1 nM 32P-RNA, 30 min at room temperature; native 6% PAGE in 0.5x TBE at 4 C; details: protein: recombinant; tags: pET-15b construct; label: 32P; terminator hairpin
[8] = terminator hairpin, A-G then C-A mismatch below, GAU4 tail
[9] = terminator hairpin, 5' A4 paired with first four U of U8 tail

B1: cspE81-FinP-stem (structured_RNA)
RNA: GGCCCUUCUGCUGCAAACGUAAUCGCUCUGUAAGAUACGUCAGCAAGAAUUCAACAGUCGCUUAAUCAGCGGCGAUUUU
- Kd ([1]; terminator hairpin): 56 ± 16 nM
- Kd ([2]; terminator hairpin): 130 ± 34 nM
- Kd [3]: 130 ± 34 nM

B2: cspE81-FinP (structured_RNA)
RNA: GGCCCUUCUGCUGCAAACGUAAUCGCUCUGUAAGAUACGUCAGCAAGAAUUCAACACCCGCUUAAUCAGCGGGGAUUUU
- Kd ([4]; terminator hairpin): 4.9 ± 0.32 nM
- Kd ([1]; terminator hairpin): 88 ± 39 nM

B3: FinP (structured_RNA)
RNA: GGAUACAUAGGAACCUCCUCACAAAGGAUUCUAUGGACAGUCGAUGCAGGGAGUUCACGUCUCCCUGCAUCGGCGAUUUU
- Kd [4, 8]: 19 ± 6 nM
- Kd [1, 8]: 110 ± 16 nM
- Kd [2, 8]: 79 ± 18 nM

B4: FinP A39U;G75U (structured_RNA)
RNA: GGAUACAUAGGAACCUCCUCACAAAGGAUUCUAUGGACUGUCGAUGCAGGGAGUUCACGUCUCCCUGCAUCGGCUAUUUU
- Kd [4]: 6.2 ± 3.1 nM
- Kd [1]: 200 ± 73 nM

B5: FinP A39U;G75U;A76U (structured_RNA)
RNA: GGAUACAUAGGAACCUCCUCACAAAGGAUUCUAUGGACUGUCGAUGCAGGGAGUUCACGUCUCCCUGCAUCGGCUUUUUU
- Kd [4]: 9.4 ± 4.5 nM
- Kd [1]: 170 ± 45 nM
- Kd [2]: 37 ± 5.4 nM

B6: malM-FinP (structured_RNA)
RNA: GCUUUAUCAGCAGUGUAAAAGGCAAGGGGUAAUUACGCCCCACAGUGCUGAUUUUGCAACAACAGGUGCGUCUCCUGGCGCACCGAUUUU
- Kd ([1]; terminator hairpin): 86 ± 17 nM
- Kd ([2]; terminator hairpin): 78 ± 22 nM

B7: RepX-malM (structured_RNA)
RNA: GCAUUGAUUGCCUCCUUUGCAGGCAGUUGGUGGACUGGCGCUGGCGGGGUCACUACCCCCGCCCUGCGCCUUUUUUU
- Kd ([4]; terminator hairpin): 3.2 ± 1.6 nM
- Kd ([1]; terminator hairpin): 150 ± 67 nM

B8: malM-3' (structured_RNA)
RNA: GCUUUAUCAGCAGUGUAAAAGGCAAGGGGUAAUUACGCCCCACAGUGCUGAUUUUGCAACAACUGGUGCGUCUCCUGGCGCACCUUUUUUU
- Kd ([4]; terminator hairpin, U7 tail): 5.8 ± 0.7 nM
- Kd ([2]; terminator hairpin, U7 tail): 27 ± 12 nM

B9: malM-3' U64A;U85G;U86A (structured_RNA)
RNA: GCUUUAUCAGCAGUGUAAAAGGCAAGGGGUAAUUACGCCCCACAGUGCUGAUUUUGCAACAACAGGUGCGUCUCCUGGCGCACCGAUUUUU
- Kd [1]: 130 ± 18 nM
- Kd [2]: 160 ± 30 nM

B10: malM-3' U64A;U85G (structured_RNA)
RNA: GCUUUAUCAGCAGUGUAAAAGGCAAGGGGUAAUUACGCCCCACAGUGCUGAUUUUGCAACAACAGGUGCGUCUCCUGGCGCACCGUUUUUU
- Kd [4]: 1.9 ± 0.59 nM
- Kd [1]: 150 ± 40 nM

B11: FinP-malM (structured_RNA)
RNA: GGAUACAUAGGAACCUCCUCACAAAGGAUUCUAUGGACUGUCGAUGCAGGGAGUUCACGUCUCCCUGCAUCGGCUUUUUUU
- Kd ([4]; terminator hairpin): 5.3 ± 1.5 nM
- Kd ([2]; terminator hairpin): 25 ± 6.7 nM
- Kd [5]: 280 ± 110 nM

B12: cspE81-3' (structured_RNA)
RNA: GGCCCUUCUGCUGCAAACGUAAUCGCUCUGUAAGAUACGUCAGCAAGAAUUCAAAACCCGCUUAAUCAGCGGGUUUUUUUU
- Kd [4, 9]: 2.4 ± 0.27 nM
- Kd [2, 9]: 37 ± 7.1 nM

B13: RepX (structured_RNA)
RNA: GCAUUGAUUGCCUCCUUUGCAGGCAGUUGGUGGUUAGGCGCUGGCGGGGUCACUACCCCCGCCCUGCGCCGCUCU
- Kd ([1]; terminator hairpin, A-G mismatch below): 61 ± 23 nM

B14: malM-RepX (structured_RNA)
RNA: GCUUUAUCAGCAGUGUAAAAGGCAAGGGGUAAUUACGCCCCACAGUGCUGAUUUUGCAACAUUAGGUGCGUCUCCUGGCGCACCGCUCU
- Kd ([1]; terminator hairpin): 180 ± 93 nM
- Kd ([2]; terminator hairpin): 61 ± 29 nM
- Kd [6]: 180 ± 93 nM
- Kd [7]: 61 ± 29 nM
